From article PMC2169300, “Signal-Regulated Pre-mRNA Occupancy by the General Splicing Factor U2AF” come the findings set out here.

Series [1] has as its target T1, His-Sam68 (mouse, UniProt Q60749 1-443). Description: EMSA; 25 and 50 ng protein; EMSA as described in cited ref [19]; buffer, salt, pH and temperature not given. The following applies: protein: recombinant; tags: His (pQE-32); chain copies: 2.
For series [2], the target named is T1, His-Sam68. Kind of series: EMSA; dose-dependent; EMSA as described in cited ref [19]; buffer, salt, pH and temperature not given. To be noted: protein: recombinant; tags: His (pQE-32); chain copies: 2. Background: In EMSA bound probe runs differently from free probe, usually more slowly.

T1 sequence (Q60749 whole entry): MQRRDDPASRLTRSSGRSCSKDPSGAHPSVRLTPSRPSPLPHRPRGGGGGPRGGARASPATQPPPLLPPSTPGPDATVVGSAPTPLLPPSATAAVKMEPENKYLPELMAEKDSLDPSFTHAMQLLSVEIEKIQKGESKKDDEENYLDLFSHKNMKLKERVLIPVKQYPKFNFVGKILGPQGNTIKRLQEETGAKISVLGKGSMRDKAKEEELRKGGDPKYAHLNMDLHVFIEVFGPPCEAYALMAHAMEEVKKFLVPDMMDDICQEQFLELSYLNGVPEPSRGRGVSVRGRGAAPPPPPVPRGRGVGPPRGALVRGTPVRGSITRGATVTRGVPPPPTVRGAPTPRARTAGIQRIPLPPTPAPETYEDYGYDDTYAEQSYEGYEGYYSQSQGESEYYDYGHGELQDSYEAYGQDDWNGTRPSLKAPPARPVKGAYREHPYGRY

AUAGACAGAAUCAGCACCAGUGCUCAUGGAGAAAAUUGGACC (ssRNA) [CD44 v5 exonic Sam68 site RNA]: the binding result in series [1] is listed as “binds”. Take GAAGAAGAGGAUUAUUAAAGACUAUUUGAUUAGA (ssRNA) [CD44 intronic Sam68 site RNA (wt)]: the binding result in series [2] was “binds”.
